According to patent publication US20230183379A1 (INSERM INSTITUT NATIONAL DE LA SANT ET DE LA RECHERCHE M …, published 2023):

Tests used:
[1] = target: T1, transferrin receptor 1 (TfR1), human (human, UniProt P02786 1-760); assay: cell-based or functional assay
[2] = target: T1, transferrin receptor 1 (TfR1), human; assay: FACS on Raji cells at 4 °C, anti-human IgG (Fc specific)-FITC
[3] = target: T2, transferrin receptor 1 (TfR1), mouse (mouse, UniProt Q62351 1-763); assay: FACS on mouse P815 cells, anti-human IgG1-FITC
T2 construct: whole, on cells; also called mouse TfR1

[4] = target: T1, transferrin receptor 1 (TfR1), human; assay: FACS on human Raji cells, anti-human IgG1-FITC
[5] = target: T2, transferrin receptor 1 (TfR1), mouse; assay: FACS on mouse P815 cells at 4 °C
[6] = target: T1, transferrin receptor 1 (TfR1), human; assay: FACS on Raji cells at 4 °C
Protocol: All incubation steps were done on ice. Raji cells (5×10^5 cells) were resuspended in 100 μL of FACS buffer [PBS, 1% FBS] containing various concentrations of the primary antibody for 1 h, washed twice with FACS buffer, and then incubated with the suitable fluorescent secondary antibody. After a final wash, cells were analyzed by FACS. The apparent affinity was determined using the GraphPad software.

[7] = target: T3, mouse IL-6 (mouse, UniProt P08505 25-211); assay: ELISA on adsorbed recombinant mouse IL-6, pH 7.4, 40 nM antibody
T3 construct: Bought recombinant protein; also called Recombinant mouse IL-6 (Peprotech, 216-16)
T3 sequence (looked up): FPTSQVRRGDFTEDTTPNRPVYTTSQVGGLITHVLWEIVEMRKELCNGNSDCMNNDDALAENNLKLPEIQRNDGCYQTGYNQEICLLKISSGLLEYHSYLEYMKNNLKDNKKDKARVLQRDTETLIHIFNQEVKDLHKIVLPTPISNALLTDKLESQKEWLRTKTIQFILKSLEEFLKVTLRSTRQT

T2 sequence (Q62351 whole entry): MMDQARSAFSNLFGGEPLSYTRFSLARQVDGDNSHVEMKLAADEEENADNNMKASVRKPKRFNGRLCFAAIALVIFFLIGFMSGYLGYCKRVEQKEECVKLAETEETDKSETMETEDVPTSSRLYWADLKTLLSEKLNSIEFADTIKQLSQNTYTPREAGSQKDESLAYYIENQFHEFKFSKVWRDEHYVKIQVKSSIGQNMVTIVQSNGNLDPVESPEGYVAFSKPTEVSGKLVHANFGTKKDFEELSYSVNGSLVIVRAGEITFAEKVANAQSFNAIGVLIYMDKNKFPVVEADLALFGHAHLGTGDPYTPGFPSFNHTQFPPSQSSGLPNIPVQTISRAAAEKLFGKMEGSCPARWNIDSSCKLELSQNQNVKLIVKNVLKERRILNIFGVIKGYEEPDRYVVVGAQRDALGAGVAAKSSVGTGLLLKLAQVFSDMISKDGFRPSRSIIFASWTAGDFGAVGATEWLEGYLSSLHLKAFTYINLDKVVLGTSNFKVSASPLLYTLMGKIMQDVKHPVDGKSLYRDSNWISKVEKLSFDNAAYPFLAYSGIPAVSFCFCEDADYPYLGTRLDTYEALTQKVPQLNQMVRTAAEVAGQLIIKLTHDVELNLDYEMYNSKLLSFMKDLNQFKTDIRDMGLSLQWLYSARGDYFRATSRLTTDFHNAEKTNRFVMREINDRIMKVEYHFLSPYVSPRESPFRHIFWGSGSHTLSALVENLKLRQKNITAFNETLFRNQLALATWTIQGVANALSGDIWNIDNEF
T1 sequence (P02786 whole entry): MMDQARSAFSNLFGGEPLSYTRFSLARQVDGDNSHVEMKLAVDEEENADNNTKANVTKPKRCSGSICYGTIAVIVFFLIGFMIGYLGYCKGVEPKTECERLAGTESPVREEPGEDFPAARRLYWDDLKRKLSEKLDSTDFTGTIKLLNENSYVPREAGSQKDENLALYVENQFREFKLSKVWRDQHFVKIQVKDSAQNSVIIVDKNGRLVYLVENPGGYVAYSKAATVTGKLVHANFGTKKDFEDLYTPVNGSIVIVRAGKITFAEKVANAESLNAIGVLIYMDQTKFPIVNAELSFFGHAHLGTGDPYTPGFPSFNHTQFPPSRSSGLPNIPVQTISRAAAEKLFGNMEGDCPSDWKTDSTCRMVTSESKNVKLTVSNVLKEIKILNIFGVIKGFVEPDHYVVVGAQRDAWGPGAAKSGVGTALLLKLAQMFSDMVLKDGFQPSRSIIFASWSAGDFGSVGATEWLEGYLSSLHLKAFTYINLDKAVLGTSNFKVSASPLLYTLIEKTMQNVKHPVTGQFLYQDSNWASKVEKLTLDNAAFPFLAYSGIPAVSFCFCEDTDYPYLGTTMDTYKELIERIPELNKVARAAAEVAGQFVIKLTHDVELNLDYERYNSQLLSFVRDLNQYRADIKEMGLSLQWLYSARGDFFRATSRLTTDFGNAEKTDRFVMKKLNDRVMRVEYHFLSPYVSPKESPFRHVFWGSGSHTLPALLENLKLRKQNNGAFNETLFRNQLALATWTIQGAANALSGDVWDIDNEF

B1: H7-scFv2 (50 kD dimeric (scFv)2 H7 antibody) (scFv)
scFv: QVQLQESGGGVVQPGRSLRLSCAASRFTFSSYAMHWVRQAPGKGLEWVAVISYDGSNKYYADSVKGRFTISRDNSKNTLYLQMNSLRAEDTAVYYCARDLSGYGDYPDYWGQGTLVTVSSGGGGSGGGGSGGGGSSELTQDPAVSVALGQTVRITCQGDSLRSYYASWYQQKPGQAPVLVMYGRNERPSGVPDRFSGSKSGTSASLAISGLQPEDEANYYCAGWDDSLTGPVFGGGTKLTVLG
- ERY-1 cell viability inhibition, IC50 [1]: 2 nM

B2: H7-scFv (monovalent) (scFv)
scFv: QVQLQESGGGVVQPGRSLRLSCAASRFTFSSYAMHWVRQAPGKGLEWVAVISYDGSNKYYADSVKGRFTISRDNSKNTLYLQMNSLRAEDTAVYYCARDLSGYGDYPDYWGQGTLVTVSSGGGGSGGGGSGGGGSSELTQDPAVSVALGQTVRITCQGDSLRSYYASWYQQKPGQAPVLVMYGRNERPSGVPDRFSGSKSGTSASLAISGLQPEDEANYYCAGWDDSLTGPVFGGGTKLTVLG
- ERY-1 cell viability inhibition, IC50 [1]: 200 nM

B3: F12-IgG1 (IgG1 anti-TfR1 F12 antibody) (antibody, V domains shown)
VH: QVQLQESGGGLVQPGGSLRLSCAASGFSFNTYTMHWVRQAPGKGLEWVADIAYDGSTKYYADSVKGRFTISRDNAKNSLYLQMNSLRAEDTAVYYCARDAVAGEGYFDLWGRGTLVTVSS
VL: QSALTQDPAVSVALGQTVRITCQGDSLRSYYASWYQQLPGTAPKLLIYRNNQRPSGVPDRFSGSKSGTSASLAISGLRSEDEADYYCAAWDDSLSAWVFGGGTKLTVLG
notes: Human IgG1; Produced as monoclonal control beside the tetravalent BsAb; also called F12 (anti TfR1 Human IgG1); parental mAb anti-TfR1 F12
- viability of Raji cells, 3 days, IC50 [1]: 0.8 nM
- viability of XG6 and XG7 cells in 1% FCS, 3 days, IC50 of the combination F12 + VH4 [1]: 1 nM
- viability of XG6 cells, 5 days, IC50 [1]: 4 nM
- EC50 [2]: 1 nM

B4: F12 scFv2-Fc (Fc fusion)
chain: QVQLQESGGGLVQPGGSLRLSCAASGFSFNTYTMHWVRQAPGKGLEWVADIAYDGSTKYYADSVKGRFTISRDNAKNSLYLQMNSLRAEDTAVYYCARDAVAGEGYFDLWGRGTLVTVSSGGGGSGGGGSGGGGSQSALTQDPAVSVALGQTVRITCQGDSLRSYYASWYQQLPGTAPKLLIYRNNQRPSGVPDRFSGSKSGTSASLAISGLRSEDEADYYCAAWDDSLSAWVFGGGTKLTVLGA
notes: Bivalent (scFv)2-Fc; also called F12-Fc; not shown: Fc fragment of human IgG1 (pFUSE-hFc2(IL2ss) vector)
- binding result [3]: binds
- binding result [4]: binds

B5: H7 scFv2-Fc (H7-Fc) (Fc fusion)
chain: QVQLQESGGGVVQPGRSLRLSCAASRFTFSSYAMHWVRQAPGKGLEWVAVISYDGSNKYYADSVKGRFTISRDNSKNTLYLQMNSLRAEDTAVYYCARDLSGYGDYPDYWGQGTLVTVSSGGGGSGGGGSGGGGSSELTQDPAVSVALGQTVRITCQGDSLRSYYASWYQQKPGQAPVLVMYGRNERPSGVPDRFSGSKSGTSASLAISGLQPEDEANYYCAGWDDSLTGPVFGGGTKLTVLG
notes: Bivalent 100 kD (scFv)2-Fc made in HEK-293 T cells; not shown: Fc fragment of human IgG1 (pFUSE-hFc2(IL2ss) vector)
- EC50 [5]: 0.8 nM

B6: scFv-Fc bispecific antibody (anti-TfR1 scFv / anti-IL-6 scFv, knob into hole Fc) (bispecific antibody)
chain 1: QVQLQESGGGVVQPGRSLRLSCAASRFTFSSYAMHWVRQAPGKGLEWVAVISYDGSNKYYADSVKGRFTISRDNSKNTLYLQMNSLRAEDTAVYYCARDLSGYGDYPDYWGQGTLVTVSSGGGGSGGGGSGGGGSSELTQDPAVSVALGQTVRITCQGDSLRSYYASWYQQKPGQAPVLVMYGRNERPSGVPDRFSGSKSGTSASLAISGLQPEDEANYYCAGWDDSLTGPVFGGGTKLTVLG
chain 2: EVQLVQSGGGVVQPGESLRLSCAASGFTFSSYSMNWVRQAPGKGLEWVSVIYSGGSTYYADSVKGRFTISRDNSKNTLYLQMNSLRAEDTAVYYCAREVYHSSGYDDAFDIWGRGTMVTVSSGGGGSGGGGSGGGGSDIQMTQSPSTLSASIGDRVTITCRASEGIYHWLAWYQQKPGKAPKLLIYKASSLASGAPSRFSGSGSGTDFTLTISSLQPDDFATYYCQQYSNYPLTFGGGTKLEIK
- EC50 [6]: 30.1 nM

B7: F2 scFv2-Fc (Fc fusion)
chain: QVQLQQSGGGVVQPGGSLRLSCAASEFTFSASGMHWVRQAPGKGLEWMAFIAYDGNQKFYADSVKGRFTISRDNSKNTLYLQMDSLRGEDTAVYYCAKEMQREGYFDYWGQGTLVTVSSGGGGSGGGGSGGGGSNFMLTQDPAVSVALGQTVRITCQGDSLRSYYASWYQQKPGQAPVLVIYGKNNRPSGIPDRFSGSKSGNSASLDISGLQSEDEADYYCATWDDNLSGPIFGGGTKVTVLG
notes: Bivalent (scFv)2-Fc; also called F2-Fc; not shown: Fc fragment of human IgG1 (pFUSE-hFc2(IL2ss) vector)
- binding result [4]: binds

B8: VH4 anti-IL-6 human IgG1 (antibody, V domains shown)
VH: EVQLVQSGGGVVQPGESLRLSCAASGFTFSSYSMNWVRQAPGKGLEWVSVIYSGGSTYYADSVKGRFTISRDNSKNTLYLQMNSLRAEDTAVYYCAREVYHSSGYDDAFDIWGRGTMVTVSS
VL: DIQMTQSPSTLSASIGDRVTITCRASEGIYHWLAWYQQKPGKAPKLLIYKASSLASGAPSRFSGSGSGTDFTLTISSLQPDDFATYYCQQYSNYPLTFGGGTKLEIK
notes: Human IgG1; also called VH4-IgG1; anti-IL-6 VH4
- binding result [7]: binds

B9: H9 scFv2-Fc (Fc fusion)
chain: QVQLAESGGGLVKPGGSLRLSCAASGFTFSDYYMSWIRQAPGKGLEWVSYISTSGSSIYYVDSVKGRFTISRDNAKNSLYLQMDSLRDDDTAVYYCARDLHGDYAFDSWGQGTLVTVSSGGGGSGGGGSGGGGSSELTQDPAVSVALGQTVRITCQGDSLRSYYASWYQQKPGQAPVLVIYGKNNRPSGIPDRFSGSKSGNSASLDISGLQSEDEADYYCATWDDNLSGPIFGGGTKVTVLG
notes: Bivalent (scFv)2-Fc; also called H9-Fc; not shown: Fc fragment of human IgG1 (pFUSE-hFc2(IL2ss) vector)
- binding result [4]: binds

B10: G9 scFv2-Fc (Fc fusion)
chain: QVQLVESGGGLVEPGGSLRLSCAASGFTFSNYAINWVRQAPGKGLEWVANIHHDGNGKYYVDSVEGRFTISRDNAKNSLYLQMDSLRAEDTAIYYCARDGYGGYLDLWGQGTLVTVSSGGGGSGGGGSGGGGSSELTQDPAVSVALGQTVRITCQGDSLRSYYASWYQQKPGQAPVLVIYGKNNRPSGIPDRFSGSGSGNTASLTITGAQAEDEADYYCAAWDDSLSGPVFGGGTKVTVLG
notes: Bivalent (scFv)2-Fc; also called G9-Fc; not shown: Fc fragment of human IgG1 (pFUSE-hFc2(IL2ss) vector)
- binding result [4]: binds

B11: H7-IgG1 (full length human IgG1 anti-TfR1) (antibody, V domains shown)
VH: QVQLQESGGGVVQPGRSLRLSCAASRFTFSSYAMHWVRQAPGKGLEWVAVISYDGSNKYYADSVKGRFTISRDNSKNTLYLQMNSLRAEDTAVYYCARDLSGYGDYPDYWGQGTLVTVSS
VL: SELTQDPAVSVALGQTVRITCQGDSLRSYYASWYQQKPGQAPVLVMYGRNERPSGVPDRFSGSKSGTSASLAISGLQPEDEANYYCAGWDDSLTGPVFGGGTKLTVLG
notes: also called H7-anti-TfR1 IgG1
- binding result [3]: no binding

B12: C32-IgG1 (antibody, V domains shown)
VH: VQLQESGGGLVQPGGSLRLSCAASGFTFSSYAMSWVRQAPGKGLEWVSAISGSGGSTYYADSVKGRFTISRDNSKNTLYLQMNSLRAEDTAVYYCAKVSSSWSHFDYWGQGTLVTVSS
VL: DVVMTQSPSTLSASVGDRVTITCRASQYISNWLAWYQQKPGKAPKLLIYKASSLESGVPSRFSGSGSGTEFTLTISSLQPEDFATYYCQESYNTPLFTFGPGTKLEIKR
notes: Full length human IgG1; also called C32 (IgG1 format)
- binding result [3]: no binding
